# Measurements from US20210261676A1 (YINNUOLAI BIOTECH, published 2021).
# T1: B-cell activating factor (BAFF) receptor (human, UniProt Q96RJ3 7-71, limits assumed)
# T1 construct: also called TNFRSF13C; BLyS receptor 3
# T1 sequence: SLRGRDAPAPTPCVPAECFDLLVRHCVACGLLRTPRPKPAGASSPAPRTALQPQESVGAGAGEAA
# Target: T1, B-cell activating factor (BAFF) receptor
# Experiment: method not stated; column heads (Kdis, Full X^2, Full R^2) look like bio-layer interferometry output
Kd,koff,kon,Binder
3.4 nM,0.0034 s⁻¹,990000 M⁻¹ s⁻¹,"H90-5 anti-BAFF receptor monoclonal antibody (antibody, V domains shown, Humanized form of C90; also called H90-5 mAb) VH: EVQLQESGPGLVKPSQTLSLTCTVSGDSITSGYWNWIRQHPGKGLEYIGYISYSGSTYYNPSLKSRVTISRDTSKNQYSLKLSSVTAADTAVYYCASPNYPFYAMDYWGQGTLVTVSS VL: DIVLTQSPATLSLSPGERATLSCRASESVDNYGISFMNWFQQKPGQAPRLLIYAASNRATGIPARFSGSGSGTDFTLTISSLEPEDFAVYYCQQSKEVPWTFGGGTKVEIKR"
0.95 nM,0.00082 s⁻¹,860000 M⁻¹ s⁻¹,"H90-11 anti-BAFF receptor monoclonal antibody (antibody, V domains shown, same heavy chain variable region as H90-5; also called H90-11 mAb) VH: EVQLQESGPGLVKPSQTLSLTCTVSGDSITSGYWNWIRQHPGKGLEYIGYISYSGSTYYNPSLKSRVTISRDTSKNQYSLKLSSVTAADTAVYYCASPNYPFYAMDYWGQGTLVTVSS VL: DIQMTQSPDSLAVSLGERATINCKSSQSVLYSSNNKNYLAWYQQKPGQPPKLLIYWASIRESGVPDRFSGSGSGTDFTLTISSLQPEDFATYYCQQSYSTPWTFGQGTKLEIKR"
